Tests used:
Assay in all cases: co-immunoprecipitation from transfected Cos 7 cells on HA beads, western blot with anti-HA and anti-p110α
[1] = target: T1, p110α, wild-type (protein encoded by PIK3CA, catalytic subunit of PI3K) (human, UniProt P42336 1-1068)
T1 construct: also called p110alpha WT
From the text: (§1) Proteins were immunoprecipitated using HA beads, separated by SDS-PAGE, transferred to nitrocellulose, and detected using anti-HA and anti-p110α antibodies. […] In the header row of Table 2, the terms “p110alpha E545K” and “p110alpha H1047R” refer to two known mutational “hot spots” in p110α which result in constitutively active p110α.

[2] = target: T2, p110α E545K (human, UniProt P42336 1-1068)
T2 construct: Known hot-spot mutant, constitutively active p110α; also called p110alpha E545K
T2 sequence (P42336 whole entry E545K): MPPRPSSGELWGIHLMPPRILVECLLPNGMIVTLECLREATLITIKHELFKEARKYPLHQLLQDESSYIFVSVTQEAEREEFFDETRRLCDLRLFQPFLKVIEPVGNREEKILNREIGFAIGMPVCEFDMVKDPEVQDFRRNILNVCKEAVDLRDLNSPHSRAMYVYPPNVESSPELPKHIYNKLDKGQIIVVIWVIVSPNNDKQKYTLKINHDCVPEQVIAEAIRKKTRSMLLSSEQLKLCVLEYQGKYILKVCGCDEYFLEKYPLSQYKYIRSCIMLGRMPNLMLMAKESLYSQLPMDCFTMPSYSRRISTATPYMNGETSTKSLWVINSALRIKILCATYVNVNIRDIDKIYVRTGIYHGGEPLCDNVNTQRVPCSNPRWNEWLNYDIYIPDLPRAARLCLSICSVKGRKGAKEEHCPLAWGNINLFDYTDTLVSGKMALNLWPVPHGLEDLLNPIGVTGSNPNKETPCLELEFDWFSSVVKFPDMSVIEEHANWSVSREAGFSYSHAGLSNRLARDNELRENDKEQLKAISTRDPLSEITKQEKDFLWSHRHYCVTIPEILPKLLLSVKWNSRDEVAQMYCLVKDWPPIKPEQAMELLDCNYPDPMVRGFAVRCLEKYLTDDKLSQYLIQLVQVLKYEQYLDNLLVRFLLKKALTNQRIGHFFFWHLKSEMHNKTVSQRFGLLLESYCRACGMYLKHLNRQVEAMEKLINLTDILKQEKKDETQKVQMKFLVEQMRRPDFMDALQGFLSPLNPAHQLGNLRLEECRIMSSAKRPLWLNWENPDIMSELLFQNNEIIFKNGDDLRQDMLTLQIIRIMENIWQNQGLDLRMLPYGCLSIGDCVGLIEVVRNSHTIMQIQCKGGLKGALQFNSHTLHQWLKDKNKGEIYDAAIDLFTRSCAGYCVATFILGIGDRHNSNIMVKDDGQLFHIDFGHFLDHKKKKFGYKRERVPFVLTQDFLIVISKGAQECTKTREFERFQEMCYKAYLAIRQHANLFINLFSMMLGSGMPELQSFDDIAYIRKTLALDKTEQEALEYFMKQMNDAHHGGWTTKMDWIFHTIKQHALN
From the text: as §1

[3] = target: T3, p110α H1047R (human, UniProt P42336 1-1068)
T3 construct: Known hot-spot mutant, constitutively active p110α; also called p110alpha H1047R
T3 sequence (P42336 whole entry H1047R): as the sequence (P42336 whole entry E545K) above, with K545E, H1047R counted along it
From the text: as §1

Measured: binding result

T1 sequence (P42336 whole entry): as the sequence (P42336 whole entry E545K) above, with K545E counted along it

B1: N-terminally HA-tagged p85α R162stop (other)
chain: MSAEGYQYRALYDYKKEREEDIDLHLGDILTVNKGSLVALGFSDGQEARPEEIGWLNGYNETTGERGDFPGTYVEYIGRKKISPPTPKPRPPRPLPVAPGSSKTEADVEQQALTLPDLAEQFAPPDIAPPLLIKLVEAIEKKGLECSTLYRTQSSSNLAEL
notes: Stop codon at R162; also called p85 R162stop; 162R>O; not shown: N-terminal HA tag
no binding: all assays above

From US20100055095A1 (Genentech, published 2010)
